This note sets out measurements from publication PMC13529201.

In this test the target is His-tagged Pasteurella lipoprotein E (PlpE) of P. multocida (Pasteurella multocida). Description: BLI.

B1: ABCF2 used as analyte in bio-layer interferometry (natural protein)
chain: MPSDLAKKKAAKKKEAAKARQRPRKGHEENGDVVTEPQVAEKNEANGRETTEVDLLTKELEDFEMKKAAARAVTGVLASHPNSTDVHIINLSLTFHGQELLSDTKLELNSGRRYGLIGLNGIGKSMLLSAIGKREVPIPEHIDIYHLTREMPPSDKTPLHCVMEVDTERAMLEKEAERLAHEDAECEKLMELYERLEELDADKAEMRASRILHGLGFTPAMQRKKLKDFSGGWRMRVALARALFIRPFMLLLDEPTNHLDLDACVWLEEELKTFKRILVLVSHSQDFLNGVCTNIIHMHNKKLKYYTGNYDQYVKTRLELEENQMKRFHWEQDQIAHMKNYIARFGHGSAKLARQAQSKEKTLQKMMASGLTERVVSDKTLSFYFPPCGKIPPPVIMVQNVSFKYTKDGPCIYNNLEFGIDLDTRVALVGPNGAGKSTLLKLLTGELLPTDGMIRKHSHVKIGRYHQHLQEQLDLDLSPLEYMMKCYPEIKEKEEMRKIIGRYGLTGKQQVSPIRNLSDGQKCRVCLAWLAWQNPHMLFLDEPTNHLDIETIDALADAINEFEGGMMLVSHDFRLIQQVAQEIWVCEKQTITKWPGDILAYKEHLKSKLVDEEPQLTKRTHNV
Take B1: the Kd came out at 970 nM.

As usually defined, the Kd is the equilibrium constant for the complex coming apart. Low values mean higher affinity, high ones lower affinity.
